B1: Lysozyme C, P61626 (parent)
chain: MKALIVLGLVLLSVTVQGKVFERCELARTLKRLGMDGYRGISLANWMCLAKWESGYNTRATNYNAGDRSTDYGIFQINSRYWCNDGKTPGAVNACHLSCSALLQDNIADAVACAKRVVRDPQGIRAWVAWRNRCQNRDVRQYVQGCGV

The variants in the first series derive from B1. As to conditions: Homo sapiens; pH 2.67; Thermal; DSC; glycine 0.05 M; reversible: yes; structure 1LZ1; whole UniProt chain shown.
Usually Tm stands for the temperature at the midpoint of the melting transition. With MKALIVLGLVLLSVTVQGKVFERCELARTLKRLGMDGYRGISLANWMCLAKWESGYNTRATNYNAGDRSTDYGTFQINSRYWCNDGKTPGAVNACHLSCSALLQDNIADAVACAKRVVRDPQGIRAWVAWRNRCQNRDVRQYVQGCGV, the Tm came to 51.8 °C, the “heat capacity change of unfolding” value came to 1 kcal/mol/K, the “unfolding enthalpy (calorimetric)” value came out at 87.8 kcal/mol and the “unfolding enthalpy (van 't Hoff)” value is 90.9 kcal/mol.

The same series, now with this note: Homo sapiens; pH 2.7; 64.9 °C; Thermal; DSC; glycine 0.05 M; reversible: yes; structure 1LZ1; whole UniProt chain shown.
On to MKALIVLGLVLLSVTVQGKVFERCELARTLKRLGMDGYRGISLANWMCLAKWESGYNTRATNYNAGDRSTDYGTFQINSRYWCNDGKTPGAVNACHLSCSALLQDNIADAVACAKRVVRDPQGIRAWVAWRNRCQNRDVRQYVQGCGV, for which the “ddG of mutation (higher = less stable)” value was found to be 3.64 kcal/mol and the “heat capacity change of unfolding” value was 1.24 kcal/mol/K.

Still in this series, the particulars now being: Homo sapiens; pH 2.7; Thermal; DSC; glycine 0.05 M; reversible: yes; structure 1LZ1; whole UniProt chain shown.
On to MKALIVLGLVLLSVTVQGKVFERCELARTLKRLGMDGYRGISLANWMCLAKWESGYNTRATNYNAGDRSTDYGTFQINSRYWCNDGKTPGAVNACHLSCSALLQDNIADAVACAKRVVRDPQGIRAWVAWRNRCQNRDVRQYVQGCGV, for which the Tm worked out at 52.4 °C; the “change of melting temperature, mutant - wild type (higher = more stable)” value was -12.5 °C; the “heat capacity change of unfolding” value stood at 1.24 kcal/mol/K; the “unfolding enthalpy (calorimetric)” value is 102 kcal/mol. Also, the “unfolding enthalpy (van 't Hoff)” value turned out to be 108 kcal/mol.

Staying with this series, now noted: Homo sapiens; pH 2.98; Thermal; DSC; glycine 0.05 M; reversible: yes; structure 1LZ1; whole UniProt chain shown.
MKALIVLGLVLLSVTVQGKVFERCELARTLKRLGMDGYRGISLANWMCLAKWESGYNTRATNYNAGDRSTDYGTFQINSRYWCNDGKTPGAVNACHLSCSALLQDNIADAVACAKRVVRDPQGIRAWVAWRNRCQNRDVRQYVQGCGV: the Tm turned out to be 58 °C, the “heat capacity change of unfolding” value was 1.2 kcal/mol/K, the “unfolding enthalpy (calorimetric)” value amounted to 93.3 kcal/mol and the “unfolding enthalpy (van 't Hoff)” value was 102 kcal/mol.

Staying with this series, now noted: Homo sapiens; pH 3.11; Thermal; DSC; glycine 0.05 M; reversible: yes; structure 1LZ1; whole UniProt chain shown.
As for MKALIVLGLVLLSVTVQGKVFERCELARTLKRLGMDGYRGISLANWMCLAKWESGYNTRATNYNAGDRSTDYGTFQINSRYWCNDGKTPGAVNACHLSCSALLQDNIADAVACAKRVVRDPQGIRAWVAWRNRCQNRDVRQYVQGCGV, the Tm was determined as 60.5 °C, the “heat capacity change of unfolding” value was 1.15 kcal/mol/K, the “unfolding enthalpy (calorimetric)” value came out at 97.6 kcal/mol and the “unfolding enthalpy (van 't Hoff)” value stood at 103 kcal/mol.

Values taken from FireProtDB (doi:10.1093/oxfordjournals.jbchem.a021544).
